Reference: patent US20080102477

Biological target: T1, BubR1 (amino acids 1-514) GST-fusion protein, O60566
T1 chain: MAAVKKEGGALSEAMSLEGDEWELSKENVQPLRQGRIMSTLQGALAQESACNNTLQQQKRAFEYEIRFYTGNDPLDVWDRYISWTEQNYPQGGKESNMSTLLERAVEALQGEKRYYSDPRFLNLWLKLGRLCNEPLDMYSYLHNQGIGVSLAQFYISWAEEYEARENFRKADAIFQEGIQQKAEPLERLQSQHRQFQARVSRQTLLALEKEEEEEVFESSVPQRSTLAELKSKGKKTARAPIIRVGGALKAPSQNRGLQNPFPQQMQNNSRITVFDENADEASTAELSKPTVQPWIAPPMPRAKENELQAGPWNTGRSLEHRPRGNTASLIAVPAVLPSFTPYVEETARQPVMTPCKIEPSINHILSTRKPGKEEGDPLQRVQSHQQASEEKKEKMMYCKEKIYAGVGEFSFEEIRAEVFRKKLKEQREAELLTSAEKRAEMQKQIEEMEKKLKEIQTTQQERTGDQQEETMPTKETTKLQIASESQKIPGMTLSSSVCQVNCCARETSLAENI

B1: PCAF (amino acids 352-832) GST-fusion protein (protein)
chain: MLEEEVYSQNSPIWDQDFLSASSRTSQLGIQTVINPPPVAGTISYNSTSSSLEQPNAGSSSPACKASSGLEANPGEKRKMTDSHVLEEAKKPRVMGDIPMELINEVMSTITDPAAMLGPETNFLSAHSARDEAARLEERRGVIEFHVVGNSLNQKPNKKILMWLVGLQNVFSHQLPRMPKEYITRLVFDPKHKTLALIKDGRVIGGICFRMFPSQGFTEIVFCAVTSNEQVKGYGTHLMNHLKEYHIKHDILNFLTYADEYAIGYFKKQGFSKEIKIPKTKYVGYIKDYEGATLMGCELNPRIPYTEFSVIIKKQKEIIKKLIERKQAQIRKVYPGLSCFKDGVRQIPIESIPGIRETGWKPSGKEKSKEPRDPDQLYSTLKSILQQVKSHQSAWPFMEPVKRTEAPGYYEVIRFPMDLKTMSERLKNRYYVSKKLFMADLQRVFTNCKEYNPPESEYYKCANILEKFFFSKIKEAGLIDK
- in vitro acetylation assay (Western blot with anti-acetyl lysine antibodies; MALDI-MS and MS/MS of pepsin peptides): the appearance of a 42 Da acetylation peak in the presence of active PCAF (PCAF 352-832) confirmed that lysine 250 (K250) is the acetylation site of BubR1
